T1: CD20 Lipoparticles (UniProt P11836 1-297)
T1 sequence (looked up): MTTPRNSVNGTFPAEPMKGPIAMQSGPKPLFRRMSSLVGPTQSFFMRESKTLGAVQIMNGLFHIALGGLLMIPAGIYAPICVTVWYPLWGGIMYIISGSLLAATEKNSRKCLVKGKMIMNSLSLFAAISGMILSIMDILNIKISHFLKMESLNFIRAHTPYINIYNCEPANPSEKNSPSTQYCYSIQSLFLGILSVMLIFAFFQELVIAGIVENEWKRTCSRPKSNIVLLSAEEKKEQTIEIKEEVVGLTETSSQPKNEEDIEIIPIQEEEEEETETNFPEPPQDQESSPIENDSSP

T2: Recombinant human Fc gamma receptor IIb/c, CD32b/c (human, UniProt P31994 46-217)
T2 sequence (looked up): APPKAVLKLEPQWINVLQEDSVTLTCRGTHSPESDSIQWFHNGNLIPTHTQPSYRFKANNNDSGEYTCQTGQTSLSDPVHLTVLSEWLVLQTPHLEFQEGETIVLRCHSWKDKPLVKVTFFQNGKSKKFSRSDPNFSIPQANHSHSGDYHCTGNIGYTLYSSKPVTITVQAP

T3: Recombinant human Fc gamma receptor IIa, CD32a 131R (human, UniProt P12318 36-218)
T3 sequence (looked up): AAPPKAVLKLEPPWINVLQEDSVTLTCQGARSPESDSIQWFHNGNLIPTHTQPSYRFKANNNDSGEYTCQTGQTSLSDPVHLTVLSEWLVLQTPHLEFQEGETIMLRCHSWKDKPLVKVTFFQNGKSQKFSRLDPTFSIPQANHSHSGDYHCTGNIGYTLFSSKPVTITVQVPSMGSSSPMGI

T4: Recombinant human Fc gamma receptor IIa, CD32a 131H (human, UniProt P12318 36-218)
T4 sequence (looked up): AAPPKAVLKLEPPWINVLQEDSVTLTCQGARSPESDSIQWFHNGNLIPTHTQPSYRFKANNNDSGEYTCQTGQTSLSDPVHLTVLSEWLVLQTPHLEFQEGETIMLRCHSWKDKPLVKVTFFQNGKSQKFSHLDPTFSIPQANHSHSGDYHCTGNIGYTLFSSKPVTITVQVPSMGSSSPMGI

T5: CD19 (UniProt P15391 20-291)
T5 sequence (looked up): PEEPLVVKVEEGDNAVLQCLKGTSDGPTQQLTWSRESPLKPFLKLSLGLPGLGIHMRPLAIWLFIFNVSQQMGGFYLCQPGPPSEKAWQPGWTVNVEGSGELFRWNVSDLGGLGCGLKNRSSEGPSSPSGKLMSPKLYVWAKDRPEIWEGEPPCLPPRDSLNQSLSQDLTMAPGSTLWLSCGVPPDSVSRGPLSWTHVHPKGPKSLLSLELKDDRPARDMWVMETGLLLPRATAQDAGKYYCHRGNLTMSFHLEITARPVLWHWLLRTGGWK


Key:
CD20 Lipoparticles = target: T1, CD20 Lipoparticles
[1] = target: Recombinant human Fc gamma receptor IIIb, CD16b (human, UniProt O75015 17-200)
Recombinant human Fc gamma receptor IIIb, CD16b, sequence (O75015 17-200 limits assumed): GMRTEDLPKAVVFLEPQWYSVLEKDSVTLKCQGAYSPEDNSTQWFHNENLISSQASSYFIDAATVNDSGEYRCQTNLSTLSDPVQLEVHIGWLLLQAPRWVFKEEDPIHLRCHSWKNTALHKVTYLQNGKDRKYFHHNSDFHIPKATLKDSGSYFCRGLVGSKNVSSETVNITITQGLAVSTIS

[2] = target: Recombinant human Fc gamma receptor IIIa, CD16a 158F (human, UniProt P08637 17-208)
Recombinant human Fc gamma receptor IIIa, CD16a 158F, sequence (P08637 17-208 limits assumed): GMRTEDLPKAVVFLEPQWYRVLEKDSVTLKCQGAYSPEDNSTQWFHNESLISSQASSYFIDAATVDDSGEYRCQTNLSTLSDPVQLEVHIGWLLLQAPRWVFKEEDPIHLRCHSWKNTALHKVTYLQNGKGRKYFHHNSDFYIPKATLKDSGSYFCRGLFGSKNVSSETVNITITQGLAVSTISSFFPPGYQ

[3] = target: Recombinant human Fc gamma receptor IIIa, CD16a 158V (human, UniProt P08637 17-208)
Recombinant human Fc gamma receptor IIIa, CD16a 158V, sequence (P08637 17-208 F176V limits assumed): as the sequence (P08637 17-208 limits assumed) above, with F160V counted along it

[4] = target: T2, Recombinant human Fc gamma receptor …
[5] = target: T3, Recombinant human Fc gamma receptor …
[6] = target: T4, Recombinant human Fc gamma receptor …
[7] = target: Recombinant human Fc gamma receptor I, CD64 (human, UniProt P12314 16-288)
Recombinant human Fc gamma receptor I, CD64, sequence (P12314 16-288 limits assumed): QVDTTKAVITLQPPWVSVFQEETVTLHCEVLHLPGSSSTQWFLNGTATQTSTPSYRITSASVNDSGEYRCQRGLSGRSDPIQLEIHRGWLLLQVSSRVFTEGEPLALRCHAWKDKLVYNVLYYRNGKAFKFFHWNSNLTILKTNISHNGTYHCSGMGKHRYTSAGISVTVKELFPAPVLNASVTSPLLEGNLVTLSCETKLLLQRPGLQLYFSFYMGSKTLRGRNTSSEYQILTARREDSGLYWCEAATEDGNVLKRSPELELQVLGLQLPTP

CD19 = target: T5, CD19

| Binder | Kd (CD20 Lipoparticles) [nM] | Kd [1] [nM] | Kd [2] [nM] | Kd [3] [nM] | Kd [4] [nM] | Kd [5] [nM] | Kd [6] [nM] | Kd [7] [nM] | Kd (CD19) [nM] |
| --- | --- | --- | --- | --- | --- | --- | --- | --- | --- |
| Rc66SIDE (one-arm antibody) (antibody, human IgG1, kappa) light: QIVLSQSPAILSASPGEKVTMTCRASSSVSYIHWFQQKPGSSPKPWIYATSNLASGVPVRFSGSGSGTSYSLTISRVEAEDAATYYCQQWTSNPPTFGGGTKLEIKRTVAAPSVFIFPPSDEQLKSGTASVVCLLNNFYPREAKVQWKVDNALQSGNSQESVTEQDSKDSTYSLSSTLTLSKADYEKHKVYACEVTHQGLSSPVTKSFNRGEC heavy: QVQLQQPGAELVKPGASVKMSCKASGYTFTSYNMHWVKQTPGRGLEWIGAIYPGNGDTSYNQKFKGKATLTADKSSSTAYMQLSSLTSEDSAVYYCARSTYYGGDWYFNVWGAGTTVTVSAASTKGPSVFPLAPSSKSTSGGTAALGCLVKDYFPEPVTVSWNSGALTSGVHTFPAVLQSSGLYSLSSVVTVPSSSLGTQTYICNVNHKPSNTKVDKKAEPKSCDKTHTCPPCPAPELLGGPDVFLFPPKPKDTLMISRTPEVTCVVVDVSHEDPEVKFNWYVDGVEVHNAKTKPREEQYNSTYRVVSVLTVLHQDWLNGKEYKCKVSNKALPAPEEKTISKAKGQPREPQVYVLPPSRDELTKNQVSLLCLVKGFYPSDIAVEWESNGQPENNYLTWPPVLDSDGSFFLYSKLTVDKSRWQQGNVFSCSVMHEALHNHYTQKSLSLSPGK CPPCPAPELLGGPDVFLFPPKPKDTLMISRTPEVTCVVVDVSHEDPEVKFNWYVDGVEVHNAKTKPREEQYNSTYRVVSVLTVLHQDWLNGKEYKCKVSNKALPAPEEKTISKAKGQPREPQVYVYPPSRDELTKNQVSLTCLVKGFYPSDIAVEWESNGQPENNYKTTPPVLDSDGSFALVSKLTVDKSRWQQGNVFSCSVMHEALHNHYTQKSLSLSPGK | 21.4 | 163 | 76.8 | 46.2 | 253 | 202 | 255 |  |  |
| Rc66SIDE-P4-Rc66SIDE (antibody, human IgG1, kappa) light: QIVLSQSPAILSASPGEKVTMTCRASSSVSYIHWFQQKPGSSPKPWIYATSNLASGVPVRFSGSGSGTSYSLTISRVEAEDAATYYCQQWTSNPPTFGGGTKLEIKRTVAAPSVFIFPPSDEQLKSGTASVVCLLNNFYPREAKVQWKVDNALQSGNSQESVTEQDSKDSTYSLSSTLTLSKADYEKHKVYACEVTHQGLSSPVTKSFNRGEC heavy: QVQLQQPGAELVKPGASVKMSCKASGYTFTSYNMHWVKQTPGRGLEWIGAIYPGNGDTSYNQKFKGKATLTADKSSSTAYMQLSSLTSEDSAVYYCARSTYYGGDWYFNVWGAGTTVTVSAASTKGPSVFPLAPSSKSTSGGTAALGCLVKDYFPEPVTVSWNSGALTSGVHTFPAVLQSSGLYSLSSVVTVPSSSLGTQTYICNVNHKPSNTKVDKKAEPKSCDKTHTCPPCPAPELLGGPDVFLFPPKPKDTLMISRTPEVTCVVVDVSHEDPEVKFNWYVDGVEVHNAKTKPREEQYNSTYRVVSVLTVLHQDWLNGKEYKCKVSNKALPAPEEKTISKAKGQPREPQVYVLPPSRDELTKNQVSLLCLVKGFYPSDIAVEWESNGQPENNYLTWPPVLDSDGSFFLYSKLTVDKSRWQQGNVFSCSVMHEALHNHYTQKSLSLSPGK CPPCPAPELLGGPDVFLFPPKPKDTLMISRTPEVTCVVVDVSHEDPEVKFNWYVDGVEVHNAKTKPREEQYNSTYRVVSVLTVLHQDWLNGKEYKCKVSNKALPAPEEKTISKAKGQPREPQVYVYPPSRDELTKNQVSLTCLVKGFYPSDIAVEWESNGQPENNYKTTPPVLDSDGSFALVSKLTVDKSRWQQGNVFSCSVMHEALHNHYTQKSLSLSPGK | < 0.001 | 1.05 | 3.87 | 1.14 | 3.17 | 4.93 | 2.54 | < 0.001 |  |
| Rc66SIDE-P28-Rc66SIDE (antibody, human IgG1, kappa) light: QIVLSQSPAILSASPGEKVTMTCRASSSVSYIHWFQQKPGSSPKPWIYATSNLASGVPVRFSGSGSGTSYSLTISRVEAEDAATYYCQQWTSNPPTFGGGTKLEIKRTVAAPSVFIFPPSDEQLKSGTASVVCLLNNFYPREAKVQWKVDNALQSGNSQESVTEQDSKDSTYSLSSTLTLSKADYEKHKVYACEVTHQGLSSPVTKSFNRGEC heavy: QVQLQQPGAELVKPGASVKMSCKASGYTFTSYNMHWVKQTPGRGLEWIGAIYPGNGDTSYNQKFKGKATLTADKSSSTAYMQLSSLTSEDSAVYYCARSTYYGGDWYFNVWGAGTTVTVSAASTKGPSVFPLAPSSKSTSGGTAALGCLVKDYFPEPVTVSWNSGALTSGVHTFPAVLQSSGLYSLSSVVTVPSSSLGTQTYICNVNHKPSNTKVDKKAEPKSCDKTHTCPPCPAPELLGGPDVFLFPPKPKDTLMISRTPEVTCVVVDVSHEDPEVKFNWYVDGVEVHNAKTKPREEQYNSTYRVVSVLTVLHQDWLNGKEYKCKVSNKALPAPEEKTISKAKGQPREPQVYVLPPSRDELTKNQVSLLCLVKGFYPSDIAVEWESNGQPENNYLTWPPVLDSDGSFFLYSKLTVDKSRWQQGNVFSCSVMHEALHNHYTQKSLSLSPGK CPPCPAPELLGGPDVFLFPPKPKDTLMISRTPEVTCVVVDVSHEDPEVKFNWYVDGVEVHNAKTKPREEQYNSTYRVVSVLTVLHQDWLNGKEYKCKVSNKALPAPEEKTISKAKGQPREPQVYVYPPSRDELTKNQVSLTCLVKGFYPSDIAVEWESNGQPENNYKTTPPVLDSDGSFALVSKLTVDKSRWQQGNVFSCSVMHEALHNHYTQKSLSLSPGK | < 0.001 | 5.64 | 6.62 | 4.98 | 7.28 | 8.11 | 5.42 | 1.14 |  |
| Rc66SIDE-P16-Rc66SIDE (antibody, human IgG1, kappa) light: QIVLSQSPAILSASPGEKVTMTCRASSSVSYIHWFQQKPGSSPKPWIYATSNLASGVPVRFSGSGSGTSYSLTISRVEAEDAATYYCQQWTSNPPTFGGGTKLEIKRTVAAPSVFIFPPSDEQLKSGTASVVCLLNNFYPREAKVQWKVDNALQSGNSQESVTEQDSKDSTYSLSSTLTLSKADYEKHKVYACEVTHQGLSSPVTKSFNRGEC heavy: QVQLQQPGAELVKPGASVKMSCKASGYTFTSYNMHWVKQTPGRGLEWIGAIYPGNGDTSYNQKFKGKATLTADKSSSTAYMQLSSLTSEDSAVYYCARSTYYGGDWYFNVWGAGTTVTVSAASTKGPSVFPLAPSSKSTSGGTAALGCLVKDYFPEPVTVSWNSGALTSGVHTFPAVLQSSGLYSLSSVVTVPSSSLGTQTYICNVNHKPSNTKVDKKAEPKSCDKTHTCPPCPAPELLGGPDVFLFPPKPKDTLMISRTPEVTCVVVDVSHEDPEVKFNWYVDGVEVHNAKTKPREEQYNSTYRVVSVLTVLHQDWLNGKEYKCKVSNKALPAPEEKTISKAKGQPREPQVYVLPPSRDELTKNQVSLLCLVKGFYPSDIAVEWESNGQPENNYLTWPPVLDSDGSFFLYSKLTVDKSRWQQGNVFSCSVMHEALHNHYTQKSLSLSPGK CPPCPAPELLGGPDVFLFPPKPKDTLMISRTPEVTCVVVDVSHEDPEVKFNWYVDGVEVHNAKTKPREEQYNSTYRVVSVLTVLHQDWLNGKEYKCKVSNKALPAPEEKTISKAKGQPREPQVYVYPPSRDELTKNQVSLTCLVKGFYPSDIAVEWESNGQPENNYKTTPPVLDSDGSFALVSKLTVDKSRWQQGNVFSCSVMHEALHNHYTQKSLSLSPGK | < 0.001 | < 0.001 | 2.71 | 0.257 | 0.556 | 1.83 | 0.808 | < 0.001 |  |
| B19c66AAC9 (one-arm antibody) (antibody, human IgG1, kappa) light: not shown heavy: QVQLQQSGAELVRPGSSVKISCKASGYAFSSYWMNWVKQRPGQGLEWIGQIWPGDGDTNYNGKFKGKATLTADESSSTAYMQLSSLASEDSAVYFCARRETTTVGRYYYAMDYWGQGTTVTVSSASTKGPSVFPLAPSSKSTSGGTAALGCLVKDYFPEPVTVSWNSGALTSGVHTFPAVLQSSGLYSLSSVVTVPSSSLGTQTYICNVNHKPSNTKVDKKVEPKSCDKTHTCPPCPAPKRRGGPSVFLFPPKPKDTLMISRTPEVTCVVVDVSHEDPEVKFNWYVDGVEVHNAKTKPREEQYNSTYRVVSVLTVLHQDWLNGKEYKCKVSNKALPAPIEKTISKAKGQPREPQVYVLPPSRDELTKNQVSLLCLVKGFYPSDIAVEWESNGQPENNYLTWPPVLDSDGSFFLYSKLTVDKSRWQQGNVFSCSVMHEALHNHYTQKSLSLSPGK CPPCPAPEDEGGPSVFLFPPKPKDTLMISRTPEVTCVVVDVSHEDPEVKFNWYVDGVEVHNAKTKPREEQYNSTYRVVSVLTVLHQDWLNGKEYKCKVSNKALPAPIEKTISKAKGQPREPQVYVYPPSRDELTKNQVSLTCLVKGFYPSDIAVEWESNGQPENNYKTTPPVLDSDGSFALVSKLTVDKSRWQQGNVFSCSVMHEALHNHYTQKSLSLSPGK |  |  |  |  |  |  |  |  | 21 |

From patent publication US20220025071A1 (BIOMOLECULAR, published 2022)
